Measured values published in patent US20090105152A1.
Values belong to the binder of their own block, whether it stands above or below them. Square brackets hold non-standard residues; d marks the D form. * marks the point of attachment. Phe(4-Cl) = N[C@@H](Cc1ccc(Cl)cc1)C(=O)O; Phe(3-F) = N[C@@H](Cc1cccc(F)c1)C(=O)O; Izc = imidazolidine-2-carboxylic acid; Phe(2-F) = N[C@@H](Cc1ccccc1F)C(=O)O; Arg(Me) = CNC(=N)NCCC[C@H](N)C(=O)O; Decanoyl = CCCCCCCCCC(=O)*; dDap = NC[C@@H](N)C(=O)O; Dab = NCC[C@H](N)C(=O)O; azaGly = NNC(=O)O; βAla = NCCC(=O)O

Biological target: human OT7T175 (metastin receptor) (human) (UniProt Q969F8)
Sequence (Q969F8 whole entry L364H): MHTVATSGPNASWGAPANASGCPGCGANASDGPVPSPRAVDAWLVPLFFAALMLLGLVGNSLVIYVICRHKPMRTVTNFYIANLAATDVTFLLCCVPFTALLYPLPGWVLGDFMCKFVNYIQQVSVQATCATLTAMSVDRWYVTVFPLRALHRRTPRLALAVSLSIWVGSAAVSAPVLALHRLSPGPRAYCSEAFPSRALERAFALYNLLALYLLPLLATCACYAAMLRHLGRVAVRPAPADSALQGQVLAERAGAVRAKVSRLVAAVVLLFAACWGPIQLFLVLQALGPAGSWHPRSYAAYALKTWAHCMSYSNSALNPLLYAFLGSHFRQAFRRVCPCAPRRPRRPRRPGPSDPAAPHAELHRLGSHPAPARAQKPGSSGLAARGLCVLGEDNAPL
Assay: cell-based or functional assay

B1: des(1)-Ac-[D-Tyr2,D-Dap3,Thr5,AzaGly7,Arg(Me)9,Trp10]MS10 (peptide)
peptide: Ac-[dY][dDap]NTF[azaGly]L[Arg(Me)]W-NH2
SMILES: CNC(=N)NCCC[C@H](NC(=O)[C@H](CC(C)C)NC(=O)NNC(=O)[C@H](Cc1ccccc1)NC(=O)[C@@H](NC(=O)[C@H](CC(N)=O)NC(=O)[C@@H](CN)NC(=O)[C@@H](Cc1ccc(O)cc1)NC(C)=O)[C@@H](C)O)C(=O)N[C@@H](Cc1c[nH]c2ccccc12)C(N)=O
intracellular Ca ion level-increasing activity [specific activity to Metastin (1-54)] (relative to Metastin (1-54)): 2.4

B5: des(1)-Ac-[D-Tyr2,D-Asp3,Thr5,AzaGly7,Arg(Me)9,Trp10]MS10 (peptide)
peptide: Ac-[dY][dD]NTF[azaGly]L[Arg(Me)]W-NH2
SMILES: CNC(=N)NCCC[C@H](NC(=O)[C@H](CC(C)C)NC(=O)NNC(=O)[C@H](Cc1ccccc1)NC(=O)[C@@H](NC(=O)[C@H](CC(N)=O)NC(=O)[C@@H](CC(=O)O)NC(=O)[C@@H](Cc1ccc(O)cc1)NC(C)=O)[C@@H](C)O)C(=O)N[C@@H](Cc1c[nH]c2ccccc12)C(N)=O
intracellular Ca ion level-increasing activity [specific activity to Metastin (1-54)] (relative to Metastin (1-54)): 3.4

B6: des(1)-Ac-[D-Tyr2,D-Trp3,Thr5,Phe(3F)6,AzaGly7,Arg(Me)9,Trp10]MS10 (peptide)
peptide: Ac-[dY][dW]NT[Phe(3-F)][azaGly]L[Arg(Me)]W-NH2
SMILES: CNC(=N)NCCC[C@H](NC(=O)[C@H](CC(C)C)NC(=O)NNC(=O)[C@H](Cc1cccc(F)c1)NC(=O)[C@@H](NC(=O)[C@H](CC(N)=O)NC(=O)[C@@H](Cc1c[nH]c2ccccc12)NC(=O)[C@@H](Cc1ccc(O)cc1)NC(C)=O)[C@@H](C)O)C(=O)N[C@@H](Cc1c[nH]c2ccccc12)C(N)=O
intracellular Ca ion level-increasing activity [specific activity to Metastin (1-54)] (relative to Metastin (1-54)): 1

B8: des(1)-Ac-[D-Tyr2,D-Trp3,Thr5,Phe(2F)6,AzaGly7,Arg(Me)9,Trp10]MS10 (peptide)
peptide: Ac-[dY][dW]NT[Phe(2-F)][azaGly]L[Arg(Me)]W-NH2
SMILES: CNC(=N)NCCC[C@H](NC(=O)[C@H](CC(C)C)NC(=O)NNC(=O)[C@H](Cc1ccccc1F)NC(=O)[C@@H](NC(=O)[C@H](CC(N)=O)NC(=O)[C@@H](Cc1c[nH]c2ccccc12)NC(=O)[C@@H](Cc1ccc(O)cc1)NC(C)=O)[C@@H](C)O)C(=O)N[C@@H](Cc1c[nH]c2ccccc12)C(N)=O
intracellular Ca ion level-increasing activity [specific activity to Metastin (1-54)] (relative to Metastin (1-54)): 0.5

B9: des(1)-Ac-[D-Tyr2,D-Gln3,Thr5,AzaGly7,Arg(Me)9,Trp10]MS10 (peptide)
peptide: Ac-[dY][dQ]NTF[azaGly]L[Arg(Me)]W-NH2
SMILES: CNC(=N)NCCC[C@H](NC(=O)[C@H](CC(C)C)NC(=O)NNC(=O)[C@H](Cc1ccccc1)NC(=O)[C@@H](NC(=O)[C@H](CC(N)=O)NC(=O)[C@@H](CCC(N)=O)NC(=O)[C@@H](Cc1ccc(O)cc1)NC(C)=O)[C@@H](C)O)C(=O)N[C@@H](Cc1c[nH]c2ccccc12)C(N)=O
intracellular Ca ion level-increasing activity [specific activity to Metastin (1-54)] (relative to Metastin (1-54)): 1.4

B11: des(1)-Ac-[D-Tyr2,D-Trp3,Dab4,Thr5,AzaGly7,Arg(Me)9,Trp10]MS10 (peptide)
peptide: Ac-[dY][dW][Dab]TF[azaGly]L[Arg(Me)]W-NH2
SMILES: CNC(=N)NCCC[C@H](NC(=O)[C@H](CC(C)C)NC(=O)NNC(=O)[C@H](Cc1ccccc1)NC(=O)[C@@H](NC(=O)[C@H](CCN)NC(=O)[C@@H](Cc1c[nH]c2ccccc12)NC(=O)[C@@H](Cc1ccc(O)cc1)NC(C)=O)[C@@H](C)O)C(=O)N[C@@H](Cc1c[nH]c2ccccc12)C(N)=O
intracellular Ca ion level-increasing activity [specific activity to Metastin (1-54)] (relative to Metastin (1-54)): 1.1

B13: des(1)-Ac-[D-Tyr2,D-Ser3,Thr5,AzaGly7,Arg(Me)9,Trp10]MS10 (peptide)
peptide: Ac-[dY][dS]NTF[azaGly]L[Arg(Me)]W-NH2
SMILES: CNC(=N)NCCC[C@H](NC(=O)[C@H](CC(C)C)NC(=O)NNC(=O)[C@H](Cc1ccccc1)NC(=O)[C@@H](NC(=O)[C@H](CC(N)=O)NC(=O)[C@@H](CO)NC(=O)[C@@H](Cc1ccc(O)cc1)NC(C)=O)[C@@H](C)O)C(=O)N[C@@H](Cc1c[nH]c2ccccc12)C(N)=O
intracellular Ca ion level-increasing activity [specific activity to Metastin (1-54)] (relative to Metastin (1-54)): 3

B14: des(1)-Ac-[D-Tyr2,Ala3,Thr5,AzaGly7,Arg(Me)9,Trp10]MS10 (peptide)
peptide: Ac-[dY]ANTF[azaGly]L[Arg(Me)]W-NH2
SMILES: CNC(=N)NCCC[C@H](NC(=O)[C@H](CC(C)C)NC(=O)NNC(=O)[C@H](Cc1ccccc1)NC(=O)[C@@H](NC(=O)[C@H](CC(N)=O)NC(=O)[C@H](C)NC(=O)[C@@H](Cc1ccc(O)cc1)NC(C)=O)[C@@H](C)O)C(=O)N[C@@H](Cc1c[nH]c2ccccc12)C(N)=O
intracellular Ca ion level-increasing activity [specific activity to Metastin (1-54)] (relative to Metastin (1-54)): 2.3

B15: des(1)-Ac-[D-Tyr2,D-His3,Thr5,AzaGly7,Arg(Me)9,Trp10]MS10 (peptide)
peptide: Ac-[dY][dH]NTF[azaGly]L[Arg(Me)]W-NH2
SMILES: CNC(=N)NCCC[C@H](NC(=O)[C@H](CC(C)C)NC(=O)NNC(=O)[C@H](Cc1ccccc1)NC(=O)[C@@H](NC(=O)[C@H](CC(N)=O)NC(=O)[C@@H](Cc1c[nH]cn1)NC(=O)[C@@H](Cc1ccc(O)cc1)NC(C)=O)[C@@H](C)O)C(=O)N[C@@H](Cc1c[nH]c2ccccc12)C(N)=O
intracellular Ca ion level-increasing activity [specific activity to Metastin (1-54)] (relative to Metastin (1-54)): 1.6

Next, values leading:

intracellular Ca ion level-increasing activity [specific activity to Metastin (1-54)] (relative to Metastin (1-54)): 9.8
B2: des(1-3)-Ac-[Thr5,AzaGly7,Arg(Me)9,Trp10]MS10 (peptide)
peptide: Ac-NTF[azaGly]L[Arg(Me)]W-NH2
SMILES: CNC(=N)NCCC[C@H](NC(=O)[C@H](CC(C)C)NC(=O)NNC(=O)[C@H](Cc1ccccc1)NC(=O)[C@@H](NC(=O)[C@H](CC(N)=O)NC(C)=O)[C@@H](C)O)C(=O)N[C@@H](Cc1c[nH]c2ccccc12)C(N)=O

intracellular Ca ion level-increasing activity [specific activity to Metastin (1-54)] (relative to Metastin (1-54)): 3
B3: des(1)-Ac-[D-Tyr2,Lys3,Thr5,AzaGly7,Arg(Me)9,Trp10]MS10 (peptide)
peptide: Ac-[dY]KNTF[azaGly]L[Arg(Me)]W-NH2
SMILES: CNC(=N)NCCC[C@H](NC(=O)[C@H](CC(C)C)NC(=O)NNC(=O)[C@H](Cc1ccccc1)NC(=O)[C@@H](NC(=O)[C@H](CC(N)=O)NC(=O)[C@H](CCCCN)NC(=O)[C@@H](Cc1ccc(O)cc1)NC(C)=O)[C@@H](C)O)C(=O)N[C@@H](Cc1c[nH]c2ccccc12)C(N)=O

intracellular Ca ion level-increasing activity [specific activity to Metastin (1-54)] (relative to Metastin (1-54)): 3.5
B4: des(1)-Ac-[D-Tyr2,Glu3,Thr5,Phe(2F)6,AzaGly7,Arg(Me)9,Trp10]MS10 (peptide)
peptide: Ac-[dY]ENT[Phe(2-F)][azaGly]L[Arg(Me)]W-NH2
SMILES: CNC(=N)NCCC[C@H](NC(=O)[C@H](CC(C)C)NC(=O)NNC(=O)[C@H](Cc1ccccc1F)NC(=O)[C@@H](NC(=O)[C@H](CC(N)=O)NC(=O)[C@H](CCC(=O)O)NC(=O)[C@@H](Cc1ccc(O)cc1)NC(C)=O)[C@@H](C)O)C(=O)N[C@@H](Cc1c[nH]c2ccccc12)C(N)=O

intracellular Ca ion level-increasing activity [specific activity to Metastin (1-54)] (relative to Metastin (1-54)): 3.4
B7: des(1)-Ac-[D-Tyr2,Leu3,Thr5,AzaGly7,Arg(Me)9,Trp10]MS10 (peptide)
peptide: Ac-[dY]LNTF[azaGly]L[Arg(Me)]W-NH2
SMILES: CNC(=N)NCCC[C@H](NC(=O)[C@H](CC(C)C)NC(=O)NNC(=O)[C@H](Cc1ccccc1)NC(=O)[C@@H](NC(=O)[C@H](CC(N)=O)NC(=O)[C@H](CC(C)C)NC(=O)[C@@H](Cc1ccc(O)cc1)NC(C)=O)[C@@H](C)O)C(=O)N[C@@H](Cc1c[nH]c2ccccc12)C(N)=O

intracellular Ca ion level-increasing activity [specific activity to Metastin (1-54)] (relative to Metastin (1-54)): 0.4
B10: des(1)-Ac-[D-Tyr2,D-Trp3,Thr5,Phe(4Cl)6,AzaGly7,Arg(Me)9,Trp10]MS10 (peptide)
peptide: Ac-[dY][dW]NT[Phe(4-Cl)][azaGly]L[Arg(Me)]W-NH2
SMILES: CNC(=N)NCCC[C@H](NC(=O)[C@H](CC(C)C)NC(=O)NNC(=O)[C@H](Cc1ccc(Cl)cc1)NC(=O)[C@@H](NC(=O)[C@H](CC(N)=O)NC(=O)[C@@H](Cc1c[nH]c2ccccc12)NC(=O)[C@@H](Cc1ccc(O)cc1)NC(C)=O)[C@@H](C)O)C(=O)N[C@@H](Cc1c[nH]c2ccccc12)C(N)=O

intracellular Ca ion level-increasing activity [specific activity to Metastin (1-54)] (relative to Metastin (1-54)): 7.2
B12: des(1-3)-Decanoyl-[Thr5,AzaGly7,Arg(Me)9,Trp10]MS10 (peptide)
peptide: Decanoyl-NTF[azaGly]L[Arg(Me)]W-NH2
SMILES: CCCCCCCCCC(=O)N[C@@H](CC(N)=O)C(=O)N[C@H](C(=O)N[C@@H](Cc1ccccc1)C(=O)NNC(=O)N[C@@H](CC(C)C)C(=O)N[C@@H](CCCNC(=N)NC)C(=O)N[C@@H](Cc1c[nH]c2ccccc12)C(N)=O)[C@@H](C)O

intracellular Ca ion level-increasing activity [specific activity to Metastin (1-54)] (relative to Metastin (1-54)): 2.6
B16: des(1)-Ac-[D-Tyr2,β-Ala3,Thr5,AzaGly7,Arg(Me)9,Trp10]MS10 (peptide)
peptide: Ac-[dY][βAla]NTF[azaGly]L[Arg(Me)]W-NH2
SMILES: CNC(=N)NCCC[C@H](NC(=O)[C@H](CC(C)C)NC(=O)NNC(=O)[C@H](Cc1ccccc1)NC(=O)[C@@H](NC(=O)[C@H](CC(N)=O)NC(=O)CCNC(=O)[C@@H](Cc1ccc(O)cc1)NC(C)=O)[C@@H](C)O)C(=O)N[C@@H](Cc1c[nH]c2ccccc12)C(N)=O

intracellular Ca ion level-increasing activity [specific activity to Metastin (1-54)] (relative to Metastin (1-54)): 2.2
B17: des(1)-Ac-[D-Tyr2,Glu3,Thr5,AzaGly7,Arg(Me)9,Trp10]MS10 (peptide)
peptide: Ac-[dY]ENTF[azaGly]L[Arg(Me)]W-NH2
SMILES: CNC(=N)NCCC[C@H](NC(=O)[C@H](CC(C)C)NC(=O)NNC(=O)[C@H](Cc1ccccc1)NC(=O)[C@@H](NC(=O)[C@H](CC(N)=O)NC(=O)[C@H](CCC(=O)O)NC(=O)[C@@H](Cc1ccc(O)cc1)NC(C)=O)[C@@H](C)O)C(=O)N[C@@H](Cc1c[nH]c2ccccc12)C(N)=O

intracellular Ca ion level-increasing activity [specific activity to Metastin (1-54)] (relative to Metastin (1-54)): 2.3
B18: des(1)-Ac-[D-Tyr2,Izc3,Thr5,AzaGly7,Arg(Me)9,Trp10]MS10 (peptide)
peptide: Ac-[dY][Izc]NTF[azaGly]L[Arg(Me)]W-NH2

intracellular Ca ion level-increasing activity [specific activity to Metastin (1-54)] (relative to Metastin (1-54)): 3.1
B19: des(1)-Ac-[D-Tyr2,Lys3,Thr5,Phe(2F)6,AzaGly7,Arg(Me)9,Trp10]MS10 (peptide)
peptide: Ac-[dY]KNT[Phe(2-F)][azaGly]L[Arg(Me)]W-NH2
SMILES: CNC(=N)NCCC[C@H](NC(=O)[C@H](CC(C)C)NC(=O)NNC(=O)[C@H](Cc1ccccc1F)NC(=O)[C@@H](NC(=O)[C@H](CC(N)=O)NC(=O)[C@H](CCCCN)NC(=O)[C@@H](Cc1ccc(O)cc1)NC(C)=O)[C@@H](C)O)C(=O)N[C@@H](Cc1c[nH]c2ccccc12)C(N)=O

intracellular Ca ion level-increasing activity [specific activity to Metastin (1-54)] (relative to Metastin (1-54)): 2.4
B20: des(1)-Ac-[D-Tyr2,Ser3,Thr5,AzaGly7,Arg(Me)9,Trp10]MS10 (peptide)
peptide: Ac-[dY]SNTF[azaGly]L[Arg(Me)]W-NH2
SMILES: CNC(=N)NCCC[C@H](NC(=O)[C@H](CC(C)C)NC(=O)NNC(=O)[C@H](Cc1ccccc1)NC(=O)[C@@H](NC(=O)[C@H](CC(N)=O)NC(=O)[C@H](CO)NC(=O)[C@@H](Cc1ccc(O)cc1)NC(C)=O)[C@@H](C)O)C(=O)N[C@@H](Cc1c[nH]c2ccccc12)C(N)=O
